# Results: US7566535B2, “Enhanced oligonucleotide-mediated nucleic acid sequence alteration” (University of Delaware, priority 2002, dated 2009)
# Values joined by “and” are separate entries in the source; they are usually repeats but may differ in a detail not shown here. Equal values may be shown once.
# B1: KanGG: chimeric, RNA-DNA double-hairpin oligonucleotide (SEQ ID NO: 1) correcting the mutant kanamycin gene of pK^Sm4021 (nucleic acid)
# chain: GCUAUUCGGCUAGGACUGGGCACAAUUUUTTGTGCCCAGTCGTAGCCGAATAGCCTCTCCUUUUGGAGAG
# modifications: chimeric RNA-DNA double hairpin, segment chemistry not given here
# B2: beta protein: protein expressed from the bet gene of the Red recombination system of bacteriophage lambda; expressed in yeast from pYNTβ (protein, UniProt P03698 1-261, looked up)
# Recombination protein bet: MSTALATLAGKLAERVGMDSVDPQELITTLRQTAFKGDASDAQFIALLIVANQYGLNPWTKEIYAFPDKQNGIVPVVGVDGWSRIINENQQFDGMDFEQDNESCTCRIYRKDRNHPICVTEWMDECRREPFKTREGREITGPWQSHPKRMLRHKAMIQCARLAFGFAGIYDKDEAERIVENTAYTAERQPERDITPVNDETMQEINTLLIALDKTWDDDLLPLCSQIFRRDIRASSELTQAEAVKALGFLKQKAAEQKVAA
# Columns and labels:
# [1] = test system: pAURHYG(x)eGFP; assay: Hygromycin gene correction in yeast LSY678 with or without trichostatin A
# [2] = test system: mutant kanamycin gene in plasmid pK^Sm4021; assay: Gene repair of plasmid pK^Sm4021 in yeast cell-free extracts, kan^r/amp^r colony readout in E. coli DH10B
# [3] = test system: pAURNeo(−)FlAsH plasmid; assay: FlAsH fluorescence assay of neomycin phosphotransferase gene correction in yeast
# [4] = test system: CYC1 gene; assay: CYC1 gene repair in diploid yeast strains, growth on glycerol (YPG); details: beta protein expression; other experiments
molecule,measurement,setting,value
"CC(/C=C/C(=O)NO)=C\[C@@H](C)C(=O)c1ccc(N(C)C)cc1 [trichostatin A, reference compound]",increase of efficiency of gene alteration,[1]; 50 μg/mL during the recovery period,≥ 3 fold
same,increase of efficiency of gene alteration,[1]; 50 μg/mL for four hours prior to electroporation,up to several-fold
B1,Relative Frequency kan^r/amp^r,"[2]; 0.5 μg oligo, 1 μg plasmid, 10 μg LSY678 extract",1.89 ×10^−5
same,Relative Frequency kan^r/amp^r,"[2]; 1 μg oligo, 1 μg pK^Sm4021, no extract",0.002 ×10^−5
same,Relative Frequency kan^r/amp^r,"[2]; 1 μg oligo, 1 μg plasmid, 1 μg LSY678 extract",0.32 ×10^−5
same,Relative Frequency kan^r/amp^r,"[2]; 1 μg oligo, 1 μg plasmid, 10 μg LSY678 extract",3.66 ×10^−5 and 2.78 ×10^−5
same,Relative Frequency kan^r/amp^r,"[2]; 1 μg oligo, 1 μg plasmid, 20 μg LSY678 extract",7.601 ×10^−5
same,Relative Frequency kan^r/amp^r,"[2]; 1 μg oligo, no plasmid, 20 μg LSY678 extract",0.0 ×10^−5
same,Relative Frequency kan^r/amp^r,"[2]; 2.0 μg oligo, 1 μg plasmid, 10 μg LSY678 extract",4.005 ×10^−5
same,Relative Correction Efficiency,[2]; 10 μg extract LSY386 (Δrad52),25.7 and 26.7 and 19.9
same,Relative Correction Efficiency,[2]; 10 μg extract LSY402 (Δrad51),5.15
same,Relative Correction Efficiency,[2]; 10 μg extract LSY407 (Δrad57),2.13
same,Relative Correction Efficiency,[2]; 10 μg extract LSY678 (wild type),1.17 and 1.08 and 1.63
same,Relative Correction Efficiency,[2]; 10 μg extract LSY814 (Δmsh2),0.79
same,Relative Correction Efficiency,[2]; 10 μg extract LSY837 (Δrad59),0.35
same,Relative Correction Efficiency,[2]; 10 μg extract XS827-18C (Δrad54),1.36
same,Relative Correction Efficiency,[2]; 10 μg extract YDR076W (Δrad55),1.27
same,Relative Correction Efficiency,[2]; 10 μg extract YELO37C (Δrad23),1.04
same,level of repair below wild-type levels,[2]; LSY678 extract expressing RAD52,4 fold
same,Relative Correction Efficiency,[2]; extract LSY386•p52 (Δrad52 expressing RAD52),2.31
same,Relative Correction Efficiency,[2]; extract LSY678•p52 (wild type expressing RAD52),0.41
same,Relative Correction Efficiency,[2]; extracts LSY386 (2 μg) + LSY678 (8 μg),2.91
same,Relative Correction Efficiency,[2]; extracts LSY386 (2 μg) + YELO37C (8 μg),1.85
same,Relative Correction Efficiency,[2]; extracts LSY386 (4 μg) + LSY678 (6 μg),5.45
same,Relative Correction Efficiency,[2]; extracts LSY386 (4 μg) + YELO37C (6 μg),3.71
same,Relative Correction Efficiency,[2]; extracts LSY386 (6 μg) + LSY678 (4 μg),10.47
same,Relative Correction Efficiency,[2]; extracts LSY386 (6 μg) + YELO37C (4 μg),9.22
same,Relative Correction Efficiency,[2]; extracts LSY386 (8 μg) + LSY678 (2 μg),14.36
same,Relative Correction Efficiency,[2]; extracts LSY386 (8 μg) + YELO37C (2 μg),16.95
same,Relative Correction Efficiency,"[2]; oligo only, no plasmid, no extract",0.0
same,corrected cells by green fluorescence (confocal microscopy),[3]; LSY678 and LSY378,many corrected cells
same,number of cells exhibiting green fluorescence,[3]; strain lacking RAD52 relative to LSY678,significant increase
B2,correction efficiency per 10^5 transformants,[4],0.326
